The record followed here is PMC5737367.

For the test, the target named is Rif1 1709-1916 (UniProt P29539). Briefly: GST pull-down from yeast lysate. As to conditions: reference: wild type; sites S731.

For Rap1 (from UniProt P11938) S731A, the “binding against the reference” value is listed as “weaker”.
